This note sets out measurements from PMC10876309, “Two Main Cancer Biomarkers as Molecular Targets of Binase Antitumor Activity” (BioMed Research International, 2024).

This data set deals with the molecule itself. Briefly: SDS-PAGE and western blot; binase in the immunoprecipitated samples, blotted with anti-binase antibodies; bands of 12 kDa and 25 kDa. (In western blotting, separated proteins are transferred to a membrane and probed.)

B1: binase, ribonuclease from Bacillus pumilus (enzyme, UniProt P00649 54-162, looked up)
chain: AVINTFDGVADYLIRYKRLPDNYITKSQASALGWVASKGNLAEVAPGKSIGGDVFSNREGRLPSASGRTWREADINYVSGFRNADRLVYSSDWLIYKTTDHYATFTRIR
notes: binase, ribonuclease of Bacillus pumilus, 12.3 kDa, pI 9.5; also called bacterial ribonuclease binase; cytotoxic ribonuclease from Bacillus pumilus; source: purified as described earlier [21, 22]
As for B1, the binding result is listed as “binds”.
